Measured values as given in the supplement of paper PMC10567573.

B1: INTS3 (parent)
chain: FHPIKETVVEEPVDITPYLDQLDE
B2: CCNC (parent)
chain: QSSHYLQWILDKQDLLKERQKDLK

Variants of: B1
Experiment: protein stability index of a GFP-peptide fusion (GPS, HEK-293T) (PSI 1-6); higher = more stable
Conditions: c terminus: a fixed tail appended
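Further: lentivirally expressed fusions sorted by FACS into six bins by GFP to DsRed ratio, PSI derived from sequencing read proportions per bin multiplied by bin number.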

| Variant | protein stability index |
| --- | --- |
| FHPIQETVVEEPVDITPYLDQLDE | 3.35 |
| FHPIDETVVEEPVDITPYLDQLDE | 4.86 |
| FHPIMETVVEEPVDITPYLDQLDE | 4.24 |
| FHPIFETVVEEPVDITPYLDQLDE | 3.73 |
| FHPIAETVVEEPVDITPYLDQLDE | 4.47 |
| FHPIPETVVEEPVDITPYLDQLDE | 4.29 |
| FHPINETVVEEPVDITPYLDQLDE | 4.8 |
| FHPIRETVVEEPVDITPYLDQLDE | 3.9 |
| FHPIIETVVEEPVDITPYLDQLDE | 3.14 |
| FHPICETVVEEPVDITPYLDQLDE | 3.99 |
| FHPIEETVVEEPVDITPYLDQLDE | 5.06 |
| FHPIGETVVEEPVDITPYLDQLDE | 4.4 |
| FHPILETVVEEPVDITPYLDQLDE | 3.87 |
| FHPIHETVVEEPVDITPYLDQLDE | 4.67 |
| KHPIKETVVEEPVDITPYLDQLDE | 5.66 |
| MHPIKETVVEEPVDITPYLDQLDE | 5.23 |
| IHPIKETVVEEPVDITPYLDQLDE | 4.99 |
| GHPIKETVVEEPVDITPYLDQLDE | 5.5 |
| EHPIKETVVEEPVDITPYLDQLDE | 5.2 |
| WHPIKETVVEEPVDITPYLDQLDE | 4.97 |
| PHPIKETVVEEPVDITPYLDQLDE | 5.74 |
| NHPIKETVVEEPVDITPYLDQLDE | 5.47 |
| CHPIKETVVEEPVDITPYLDQLDE | 5.32 |

| Variant | protein stability index |
| --- | --- |
| RHPIKETVVEEPVDITPYLDQLDE | 5.18 |
| AHPIKETVVEEPVDITPYLDQLDE | 5.42 |
| VHPIKETVVEEPVDITPYLDQLDE | 5.44 |
| HHPIKETVVEEPVDITPYLDQLDE | 5.5 |
| SHPIKETVVEEPVDITPYLDQLDE | 5.58 |
| YHPIKETVVEEPVDITPYLDQLDE | 3.3 |
| LHPIKETVVEEPVDITPYLDQLDE | 5.28 |
| DHPIKETVVEEPVDITPYLDQLDE | 5.78 |
| QHPIKETVVEEPVDITPYLDQLDE | 5.65 |
| THPIKETVVEEPVDITPYLDQLDE | 5.54 |
| FHPGKETVVEEPVDITPYLDQLDE | 4.25 |
| FHPEKETVVEEPVDITPYLDQLDE | 4.06 |
| FHPFKETVVEEPVDITPYLDQLDE | 3.4 |
| FHPWKETVVEEPVDITPYLDQLDE | 2.87 |
| FHPTKETVVEEPVDITPYLDQLDE | 3.9 |
| FHPCKETVVEEPVDITPYLDQLDE | 3.31 |
| FHPLKETVVEEPVDITPYLDQLDE | 3.85 |
| FHPQKETVVEEPVDITPYLDQLDE | 3.83 |
| FHPPKETVVEEPVDITPYLDQLDE | 2.96 |
| FHPVKETVVEEPVDITPYLDQLDE | 3.82 |
| FHPHKETVVEEPVDITPYLDQLDE | 4.1 |
| FHPYKETVVEEPVDITPYLDQLDE | 2.77 |
| FHPRKETVVEEPVDITPYLDQLDE | 3.17 |

| Variant | protein stability index |
| --- | --- |
| FHPAKETVVEEPVDITPYLDQLDE | 2.98 |
| FHPMKETVVEEPVDITPYLDQLDE | 4.2 |
| FHPDKETVVEEPVDITPYLDQLDE | 4.08 |
| FHPNKETVVEEPVDITPYLDQLDE | 3.85 |
| FHPKKETVVEEPVDITPYLDQLDE | 3.08 |
| FHPSKETVVEEPVDITPYLDQLDE | 3.87 |
| FHRIKETVVEEPVDITPYLDQLDE | 3.76 |
| FHSIKETVVEEPVDITPYLDQLDE | 4.03 |
| FHCIKETVVEEPVDITPYLDQLDE | 3.23 |
| FHVIKETVVEEPVDITPYLDQLDE | 4.19 |
| FHNIKETVVEEPVDITPYLDQLDE | 4.63 |
| FHHIKETVVEEPVDITPYLDQLDE | 3.56 |
| FHDIKETVVEEPVDITPYLDQLDE | 4.79 |
| FHEIKETVVEEPVDITPYLDQLDE | 5 |
| FHGIKETVVEEPVDITPYLDQLDE | 4.49 |
| FHMIKETVVEEPVDITPYLDQLDE | 2.9 |
| FHAIKETVVEEPVDITPYLDQLDE | 3.82 |
| FHTIKETVVEEPVDITPYLDQLDE | 3.43 |
| FHIIKETVVEEPVDITPYLDQLDE | 2.66 |
| FHLIKETVVEEPVDITPYLDQLDE | 3.14 |
| FHWIKETVVEEPVDITPYLDQLDE | 1.73 |
| FHQIKETVVEEPVDITPYLDQLDE | 3.78 |
| FHYIKETVVEEPVDITPYLDQLDE | 2.75 |

| Variant | protein stability index |
| --- | --- |
| FHFIKETVVEEPVDITPYLDQLDE | 2.52 |
| FHKIKETVVEEPVDITPYLDQLDE | 4.82 |
| FWPIKETVVEEPVDITPYLDQLDE | 4.2 |
| FTPIKETVVEEPVDITPYLDQLDE | 4.62 |
| FRPIKETVVEEPVDITPYLDQLDE | 4.81 |
| FSPIKETVVEEPVDITPYLDQLDE | 5.47 |
| FEPIKETVVEEPVDITPYLDQLDE | 5.26 |
| FAPIKETVVEEPVDITPYLDQLDE | 4.34 |
| FGPIKETVVEEPVDITPYLDQLDE | 5.35 |
| FVPIKETVVEEPVDITPYLDQLDE | 2.16 |
| FMPIKETVVEEPVDITPYLDQLDE | 4.87 |
| FYPIKETVVEEPVDITPYLDQLDE | 4.63 |
| FLPIKETVVEEPVDITPYLDQLDE | 4.87 |
| FPPIKETVVEEPVDITPYLDQLDE | 5.03 |
| FQPIKETVVEEPVDITPYLDQLDE | 4.7 |
| FIPIKETVVEEPVDITPYLDQLDE | 3.71 |
| FNPIKETVVEEPVDITPYLDQLDE | 5.18 |
| FDPIKETVVEEPVDITPYLDQLDE | 5.42 |
| FCPIKETVVEEPVDITPYLDQLDE | 4.11 |
| FFPIKETVVEEPVDITPYLDQLDE | 4.86 |
| FKPIKETVVEEPVDITPYLDQLDE | 5.24 |

Variants of: B2
Experiment: as above
Conditions: c terminus: a fixed tail appended

| Variant | protein stability index |
| --- | --- |
| QSSHYLQWILDKQDLLKERFKDLK | 2.67 |
| QSSHYLQWILDKQDLLKERAKDLK | 3.12 |
| QSSHYLQWILDKQDLLKERSKDLK | 3.38 |
| QSSHYLQWILDKQDLLKERLKDLK | 2.17 |
